In patent publication EP4600371A1, “CELL-FREE GLYCOSYLATION OF PEPTIDES AND PROTEINS” (ETH Zurich, priority 2024, dated 2025):

Key:
TbSTT3A = assay: Kinetic assay with ssOST enzyme: in vitro glycosylation of acceptor peptide, UPLC readout; assay type: biochemical, Trypanosoma brucei; conditions: compared to Dol20-PP-GlcNAc2Man5 as donor; 50 nM TbSTT3A, 15 µM LLO, 20 µM 5CF-GSDANYTYTQ, 30°C; Figure 3A
Procedure: (§1) In vitro glycosylation reactions were performed by mixing 50 nM purified TbSTT3A or 100 nM TbSTT3B protein, 15µM Phy-LLO or Dol20-LLO, 10 mM MnCl2, 150 mM NaCl, 20 mM HEPES pH 7.5, 0.035% DDM, 0.007% CHS and 20 µM of the acceptor peptide (for STT3A: 5CF-GSDANYTYTQ (SEQ ID No 33), for STT3B: 5CF-GSLANYTK (SEQ ID No 34)), and incubating at 30°C. 1 µL samples were taken at different time points and diluted in 10% ACN, 10 mM phosphate buffer pH 7. Samples were analyzed by reverse-phase chromatography using a UPLC Dionex UltiMate 3000 with an Accucore 150-C18 100 × 2.1 mm 2.6 µm column (Thermo Fisher Scientific)40. Peaks for glycopeptide and peptide were integrated using the Software ChromeleonTM, and the amount of produced glycopeptide was determined for each data point. Turnover rate determination was performed by fitting of the data to linear regression using PRISM software.

TbSTT3B = assay: as above; assay type: biochemical, Trypanosoma brucei; conditions: for completion of the glycosylation reaction: after an hour of incubation at room temperature, TbSTT3B
Procedure: as §1, with “and incubating at 30°C.” left out

Row | Substance | turnover rate of glycosylation (TbSTT3A) | completion of the glycosylation reaction (TbSTT3B) | turnover rate (TbSTT3B; compared to Dol20-PP-GlcNAc2Man9 as substrate, 100 nM TbSTT3B, 15 µM LLO, 20 µM 5CF-GSLANYTK, 30°C, Figure 3B)
1 | phy-PP-GlcNAc2Man5 | almost identical |  | 
2 | Dol20-PP-GlcNAc2Man9 [reference compound] |  | went to completion | 
3 | phy-PP-GlcNAc2Man9 |  | went to completion | somewhat slower
